One block for each binder: values may come before it. Numbered stars: 1 amine (or outer) side, 2 acyl side, 3 side chain; on linkers, the order of the positions; unused ones are H or OH. Bridge positions count the residues as written; N and C are the ends. * marks the point of attachment. C20 diacid = O=C(O)CCCCCCCCCCCCCCCCCCC(=O)*; γGlu = O=C(O)[C@H](CCC(=O)[*:2])N[*:1]
Columns and labels:
[1] = biological target: T1, rat calcitonin receptor (rat, UniProt P32214 25-516); test: SPA competition with 125I-calcitonin, membranes of BHK cells with rat calcitonin receptor (Assay VIII)
T1 construct: whole, on cells; Used as membranes prepared from the transfected cells; also called rCTR; rat calcitonin (a) receptor
T1 sequence (looked up): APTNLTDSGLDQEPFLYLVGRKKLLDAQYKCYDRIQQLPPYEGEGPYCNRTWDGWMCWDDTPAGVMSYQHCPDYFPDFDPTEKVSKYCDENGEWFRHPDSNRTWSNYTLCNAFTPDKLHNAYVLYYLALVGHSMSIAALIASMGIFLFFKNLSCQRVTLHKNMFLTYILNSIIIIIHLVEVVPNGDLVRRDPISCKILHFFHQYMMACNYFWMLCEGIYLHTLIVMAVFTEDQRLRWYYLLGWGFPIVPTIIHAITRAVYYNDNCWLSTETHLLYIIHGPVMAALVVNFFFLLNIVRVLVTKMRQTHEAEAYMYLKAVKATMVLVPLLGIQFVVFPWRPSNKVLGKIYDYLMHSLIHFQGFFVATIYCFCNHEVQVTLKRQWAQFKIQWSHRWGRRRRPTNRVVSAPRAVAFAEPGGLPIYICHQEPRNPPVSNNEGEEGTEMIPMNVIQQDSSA

[2] = biological target: T1, rat calcitonin receptor; test: ratio IC50 rat calcitonin receptor / IC50 rat amylin receptor (Assays VIII and VI)
[3] = biological target: T2, rat amylin receptor (rat calcitonin receptor + rat RAMP 3) (rat, UniProt P32214 25-516; Q9JJ73 23-147); test: SPA competition with 125I-rat amylin, membranes of BHK cells with rat calcitonin receptor + rat RAMP3 (Assay VI)
T2 construct: whole, on cells; Used as membranes prepared from the transfected cells; also called rAmylin-R; rat amylin 3(a) receptor
T2 sequence (looked up) 1: T1 sequence (looked up)
T2 sequence (looked up) 2: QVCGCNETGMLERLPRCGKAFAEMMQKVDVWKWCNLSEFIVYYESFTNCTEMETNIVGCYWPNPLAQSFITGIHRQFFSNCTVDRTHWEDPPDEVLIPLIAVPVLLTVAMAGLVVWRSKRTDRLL

[4] = biological target: T3, human calcitonin receptor (human, UniProt P30988 25-474); test: ratio IC50 human calcitonin receptor / IC50 human amylin receptor (Assays VII and V)
T3 construct: whole, on cells; Used as membranes prepared from the transfected cells (Assay VII); also called hCTR; hCT
T3 sequence (looked up): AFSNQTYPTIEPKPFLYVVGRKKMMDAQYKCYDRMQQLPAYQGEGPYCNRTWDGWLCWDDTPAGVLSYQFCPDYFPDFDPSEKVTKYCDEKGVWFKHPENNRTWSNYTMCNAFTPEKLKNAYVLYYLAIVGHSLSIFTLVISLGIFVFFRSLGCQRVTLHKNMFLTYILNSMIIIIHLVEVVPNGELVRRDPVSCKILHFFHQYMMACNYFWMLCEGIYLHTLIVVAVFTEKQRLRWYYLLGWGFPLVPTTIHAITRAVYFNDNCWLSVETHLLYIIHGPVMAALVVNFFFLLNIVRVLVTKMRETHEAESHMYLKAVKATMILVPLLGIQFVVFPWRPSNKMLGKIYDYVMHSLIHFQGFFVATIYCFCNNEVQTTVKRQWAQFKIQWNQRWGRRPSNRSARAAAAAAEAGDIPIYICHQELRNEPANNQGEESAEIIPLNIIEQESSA
Method in brief: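 Competition binding by SPA with cell membranes (35 ng/μL) and SPA beads in 50 mM Hepes pH 7.4 with 1 mM CaCl2, 5 mM MgCl2, 0.1% OA and 0.02% Tween20. Incubated 120 min at 25 °C with shaking, then counted.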

B3: N^α1-[(4S)-4-carboxy-4-(19-carboxynonadecanoylamino)butanoyl]-[Glu14,Arg17,Pro21,Pro27,His34]-h-amylin (peptide)
peptide: {C20 diacid-γGlu}-KCNTATCATQRLAEFLRHSSPNFGAIPSSTNVGHNTY-NH2
modifications: disulfide 2-7
SMILES: CC[C@H](C)[C@H](NC(=O)[C@H](C)NC(=O)CNC(=O)[C@H](Cc1ccccc1)NC(=O)[C@H](CC(N)=O)NC(=O)[C@@H]1CCCN1C(=O)[C@H](CO)NC(=O)[C@H](CO)NC(=O)[C@H](Cc1c[nH]cn1)NC(=O)[C@H](CCCNC(=N)N)NC(=O)[C@H](CC(C)C)NC(=O)[C@H](Cc1ccccc1)NC(=O)[C@H](CCC(=O)O)NC(=O)[C@H](C)NC(=O)[C@H](CC(C)C)NC(=O)[C@H](CCCNC(=N)N)NC(=O)[C@H](CCC(N)=O)NC(=O)[C@@H](NC(=O)[C@H](C)NC(=O)[C@@H]1CSSC[C@H](NC(=O)[C@H](CCCCN)NC(=O)CC[C@H](NC(=O)CCCCCCCCCCCCCCCCCCC(=O)O)C(=O)O)C(=O)N[C@@H](CC(N)=O)C(=O)N[C@@H]([C@@H](C)O)C(=O)N[C@@H](C)C(=O)N[C@@H]([C@@H](C)O)C(=O)N1)[C@@H](C)O)C(=O)N1CCC[C@H]1C(=O)N[C@@H](CO)C(=O)N[C@@H](CO)C(=O)N[C@H](C(=O)N[C@@H](CC(N)=O)C(=O)N[C@H](C(=O)NCC(=O)N[C@@H](Cc1c[nH]cn1)C(=O)N[C@@H](CC(N)=O)C(=O)N[C@H](C(=O)N[C@@H](Cc1ccc(O)cc1)C(N)=O)[C@@H](C)O)C(C)C)[C@@H](C)O
notes: Derivative of human amylin; also called compound 17
IC50 [1]: 97.2 nM
Ratio rCT/rAmylin binding [2]: 35.9
IC50 [3]: 2.71 nM
Ratio hCT/hAmylin binding [4]: 12.5

B5: N^α1-[(4S)-4-carboxy-4-(19-carboxynonadecanoylamino)butanoyl]-[Glu14,Arg17,Pro21,Pro27,Arg35]-h-amylin (peptide)
peptide: {C20 diacid-γGlu}-KCNTATCATQRLAEFLRHSSPNFGAIPSSTNVGSRTY-NH2
modifications: disulfide 2-7
SMILES: CC[C@H](C)[C@H](NC(=O)[C@H](C)NC(=O)CNC(=O)[C@H](Cc1ccccc1)NC(=O)[C@H](CC(N)=O)NC(=O)[C@@H]1CCCN1C(=O)[C@H](CO)NC(=O)[C@H](CO)NC(=O)[C@H](Cc1c[nH]cn1)NC(=O)[C@H](CCCNC(=N)N)NC(=O)[C@H](CC(C)C)NC(=O)[C@H](Cc1ccccc1)NC(=O)[C@H](CCC(=O)O)NC(=O)[C@H](C)NC(=O)[C@H](CC(C)C)NC(=O)[C@H](CCCNC(=N)N)NC(=O)[C@H](CCC(N)=O)NC(=O)[C@@H](NC(=O)[C@H](C)NC(=O)[C@@H]1CSSC[C@H](NC(=O)[C@H](CCCCN)NC(=O)CC[C@H](NC(=O)CCCCCCCCCCCCCCCCCCC(=O)O)C(=O)O)C(=O)N[C@@H](CC(N)=O)C(=O)N[C@@H]([C@@H](C)O)C(=O)N[C@@H](C)C(=O)N[C@@H]([C@@H](C)O)C(=O)N1)[C@@H](C)O)C(=O)N1CCC[C@H]1C(=O)N[C@@H](CO)C(=O)N[C@@H](CO)C(=O)N[C@H](C(=O)N[C@@H](CC(N)=O)C(=O)N[C@H](C(=O)NCC(=O)N[C@@H](CO)C(=O)N[C@@H](CCCNC(=N)N)C(=O)N[C@H](C(=O)N[C@@H](Cc1ccc(O)cc1)C(N)=O)[C@@H](C)O)C(C)C)[C@@H](C)O
notes: Derivative of human amylin; also called compound 16
IC50 [1]: 55.2 nM
Ratio rCT/rAmylin binding [2]: 45.6
IC50 [3]: 1.21 nM
Ratio hCT/hAmylin binding [4]: 19.1

Binders with a lower IC50 [1], results first:

IC50 [1]: 4.65 nM
Ratio rCT/rAmylin binding [2]: 3.6
IC50 [3]: 1.3 nM
Ratio hCT/hAmylin binding [4]: 1.4
B1: N^α1-[(4S)-4-carboxy-4-(19-carboxynonadecanoylamino)butanoyl]-[Glu14,Arg17,Pro21,Pro26,Pro37]-h-amylin (peptide)
peptide: {C20 diacid-γGlu}-KCNTATCATQRLAEFLRHSSPNFGAPLSSTNVGSNTP-NH2
modifications: disulfide 2-7
SMILES: CC(C)C[C@H](NC(=O)[C@H](CCCNC(=N)N)NC(=O)[C@H](CCC(N)=O)NC(=O)[C@@H](NC(=O)[C@H](C)NC(=O)[C@@H]1CSSC[C@H](NC(=O)[C@H](CCCCN)NC(=O)CC[C@H](NC(=O)CCCCCCCCCCCCCCCCCCC(=O)O)C(=O)O)C(=O)N[C@@H](CC(N)=O)C(=O)N[C@@H]([C@@H](C)O)C(=O)N[C@@H](C)C(=O)N[C@@H]([C@@H](C)O)C(=O)N1)[C@@H](C)O)C(=O)N[C@@H](C)C(=O)N[C@@H](CCC(=O)O)C(=O)N[C@@H](Cc1ccccc1)C(=O)N[C@@H](CC(C)C)C(=O)N[C@@H](CCCNC(=N)N)C(=O)N[C@@H](Cc1c[nH]cn1)C(=O)N[C@@H](CO)C(=O)N[C@@H](CO)C(=O)N1CCC[C@H]1C(=O)N[C@@H](CC(N)=O)C(=O)N[C@@H](Cc1ccccc1)C(=O)NCC(=O)N[C@@H](C)C(=O)N1CCC[C@H]1C(=O)N[C@@H](CC(C)C)C(=O)N[C@@H](CO)C(=O)N[C@@H](CO)C(=O)N[C@H](C(=O)N[C@@H](CC(N)=O)C(=O)N[C@H](C(=O)NCC(=O)N[C@@H](CO)C(=O)N[C@@H](CC(N)=O)C(=O)N[C@H](C(=O)N1CCC[C@H]1C(N)=O)[C@@H](C)O)C(C)C)[C@@H](C)O
notes: Derivative of human amylin; also called compound 5

IC50 [1]: 47.2 nM
Ratio rCT/rAmylin binding [2]: 42
IC50 [3]: 1.12 nM
Ratio hCT/hAmylin binding [4]: 16.5
B2: N^α1-[(4S)-4-carboxy-4-(19-carboxynonadecanoylamino)butanoyl]-[Glu14,Arg17,Pro21,Pro26]-h-amylin (peptide)
peptide: {C20 diacid-γGlu}-KCNTATCATQRLAEFLRHSSPNFGAPLSSTNVGSNTY-NH2
modifications: disulfide 2-7
SMILES: CC(C)C[C@H](NC(=O)[C@H](CCCNC(=N)N)NC(=O)[C@H](CCC(N)=O)NC(=O)[C@@H](NC(=O)[C@H](C)NC(=O)[C@@H]1CSSC[C@H](NC(=O)[C@H](CCCCN)NC(=O)CC[C@H](NC(=O)CCCCCCCCCCCCCCCCCCC(=O)O)C(=O)O)C(=O)N[C@@H](CC(N)=O)C(=O)N[C@@H]([C@@H](C)O)C(=O)N[C@@H](C)C(=O)N[C@@H]([C@@H](C)O)C(=O)N1)[C@@H](C)O)C(=O)N[C@@H](C)C(=O)N[C@@H](CCC(=O)O)C(=O)N[C@@H](Cc1ccccc1)C(=O)N[C@@H](CC(C)C)C(=O)N[C@@H](CCCNC(=N)N)C(=O)N[C@@H](Cc1c[nH]cn1)C(=O)N[C@@H](CO)C(=O)N[C@@H](CO)C(=O)N1CCC[C@H]1C(=O)N[C@@H](CC(N)=O)C(=O)N[C@@H](Cc1ccccc1)C(=O)NCC(=O)N[C@@H](C)C(=O)N1CCC[C@H]1C(=O)N[C@@H](CC(C)C)C(=O)N[C@@H](CO)C(=O)N[C@@H](CO)C(=O)N[C@H](C(=O)N[C@@H](CC(N)=O)C(=O)N[C@H](C(=O)NCC(=O)N[C@@H](CO)C(=O)N[C@@H](CC(N)=O)C(=O)N[C@H](C(=O)N[C@@H](Cc1ccc(O)cc1)C(N)=O)[C@@H](C)O)C(C)C)[C@@H](C)O
notes: Derivative of human amylin; also called compound 7

IC50 [1]: 13 nM
Ratio rCT/rAmylin binding [2]: 27.3
IC50 [3]: 0.476 nM
Ratio hCT/hAmylin binding [4]: 9.2
B4: N^α1-[(4S)-4-carboxy-4-(19-carboxynonadecanoylamino)butanoyl]-[Glu14,Arg17,Pro21,Pro27,His35]-h-amylin (peptide)
peptide: {C20 diacid-γGlu}-KCNTATCATQRLAEFLRHSSPNFGAIPSSTNVGSHTY-NH2
modifications: disulfide 2-7
SMILES: CC[C@H](C)[C@H](NC(=O)[C@H](C)NC(=O)CNC(=O)[C@H](Cc1ccccc1)NC(=O)[C@H](CC(N)=O)NC(=O)[C@@H]1CCCN1C(=O)[C@H](CO)NC(=O)[C@H](CO)NC(=O)[C@H](Cc1c[nH]cn1)NC(=O)[C@H](CCCNC(=N)N)NC(=O)[C@H](CC(C)C)NC(=O)[C@H](Cc1ccccc1)NC(=O)[C@H](CCC(=O)O)NC(=O)[C@H](C)NC(=O)[C@H](CC(C)C)NC(=O)[C@H](CCCNC(=N)N)NC(=O)[C@H](CCC(N)=O)NC(=O)[C@@H](NC(=O)[C@H](C)NC(=O)[C@@H]1CSSC[C@H](NC(=O)[C@H](CCCCN)NC(=O)CC[C@H](NC(=O)CCCCCCCCCCCCCCCCCCC(=O)O)C(=O)O)C(=O)N[C@@H](CC(N)=O)C(=O)N[C@@H]([C@@H](C)O)C(=O)N[C@@H](C)C(=O)N[C@@H]([C@@H](C)O)C(=O)N1)[C@@H](C)O)C(=O)N1CCC[C@H]1C(=O)N[C@@H](CO)C(=O)N[C@@H](CO)C(=O)N[C@H](C(=O)N[C@@H](CC(N)=O)C(=O)N[C@H](C(=O)NCC(=O)N[C@@H](CO)C(=O)N[C@@H](Cc1c[nH]cn1)C(=O)N[C@H](C(=O)N[C@@H](Cc1ccc(O)cc1)C(N)=O)[C@@H](C)O)C(C)C)[C@@H](C)O
notes: Derivative of human amylin; also called compound 18
